Test results published in patent publication US20210253718A1 (MODMAB THERAPEUTICS, published 2021).
Residue numbers refer to the chain shown, from its start. Blank lines part the entries; values can stand above or below the binder they belong to.

What was measured:
[1] = target: T1, FZD3 cysteine-rich domain (CRD), MYC-tagged and GPI-anchored on CHO cells (human, UniProt Q9NPG1 24-150, GPI anchor); assay: flow cytometry, CHO-CRD cells;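 also: flow cytometry of Fab binding to CHO cells overexpressing a Frizzled CRD, with binding defined as median fluorescence over twice that of CHO cells lacking any Frizzled CRD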
T1 construct: domain: cysteine-rich domain (CRD); also called FZD3 CRD; CHO-myc-FZDGPI; not shown: MYC tag and GPI anchor signal
T1 sequence (looked up): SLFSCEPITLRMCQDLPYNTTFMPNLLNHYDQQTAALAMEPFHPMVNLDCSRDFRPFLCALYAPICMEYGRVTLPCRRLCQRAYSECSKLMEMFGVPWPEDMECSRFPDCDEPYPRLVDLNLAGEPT

[2] = target: T2, FZD4 cysteine-rich domain (CRD), MYC-tagged and GPI-anchored on CHO cells (human, UniProt Q9ULV1 42-167, GPI anchor); assay: flow cytometry, CHO-CRD cells;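 also: flow cytometry of Fab binding to CHO cells overexpressing a Frizzled CRD, with binding defined as median fluorescence over twice that of CHO cells lacking any Frizzled CRD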
T2 construct: also called FZD4 CRD; CHO-myc-FZDGPI; not shown: MYC tag and GPI anchor signal
T2 sequence: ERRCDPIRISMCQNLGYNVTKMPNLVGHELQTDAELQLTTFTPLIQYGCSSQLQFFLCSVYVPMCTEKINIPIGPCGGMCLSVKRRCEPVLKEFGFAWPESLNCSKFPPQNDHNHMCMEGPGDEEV

[3] = target: T3, FZD5 cysteine-rich domain (CRD), MYC-tagged and GPI-anchored on CHO cells (human, UniProt Q13467 29-156, GPI anchor); assay: flow cytometry, CHO-CRD cells;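 also: flow cytometry of Fab binding to CHO cells overexpressing a Frizzled CRD, with binding defined as median fluorescence over twice that of CHO cells lacking any Frizzled CRD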
T3 construct: also called FZD5 CRD; CHO-myc-FZDGPI; not shown: MYC tag and GPI anchor signal
T3 sequence: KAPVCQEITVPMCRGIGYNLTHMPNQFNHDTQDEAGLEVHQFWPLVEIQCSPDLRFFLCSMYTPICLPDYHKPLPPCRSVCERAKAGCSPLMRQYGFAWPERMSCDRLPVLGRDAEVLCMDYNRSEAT

[4] = target: T4, FZD6 cysteine-rich domain (CRD), MYC-tagged and GPI-anchored on CHO cells (human, UniProt O60353 20-146, GPI anchor); assay: flow cytometry, CHO-CRD cells;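 also: flow cytometry of Fab binding to CHO cells overexpressing a Frizzled CRD, with binding defined as median fluorescence over twice that of CHO cells lacking any Frizzled CRD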
T4 construct: also called FZD6 CRD; CHO-myc-FZDGPI; not shown: MYC tag and GPI anchor signal
T4 sequence: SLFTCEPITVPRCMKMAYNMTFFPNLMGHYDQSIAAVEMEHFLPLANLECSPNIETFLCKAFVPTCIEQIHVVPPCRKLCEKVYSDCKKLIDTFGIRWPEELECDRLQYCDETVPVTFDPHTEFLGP

[5] = target: T5, FZD9 cysteine-rich domain (CRD), MYC-tagged and GPI-anchored on CHO cells (human, UniProt O00144 35-161, GPI anchor); assay: flow cytometry, CHO-CRD cells
T5 construct: also called FZD9 CRD; CHO-myc-FZDGPI; not shown: MYC tag and GPI anchor signal
T5 sequence: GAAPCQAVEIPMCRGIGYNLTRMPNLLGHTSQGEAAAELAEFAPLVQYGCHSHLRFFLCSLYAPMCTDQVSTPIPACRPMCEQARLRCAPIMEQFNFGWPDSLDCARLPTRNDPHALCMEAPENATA

[6] = target: T6, FZD10 cysteine-rich domain (CRD), MYC-tagged and GPI-anchored on CHO cells (human, UniProt Q9ULW2 30-156, GPI anchor); assay: flow cytometry, CHO-CRD cells
T6 construct: also called FZD10 CRD; CHO-myc-FZDGPI; not shown: MYC tag and GPI anchor signal
T6 sequence: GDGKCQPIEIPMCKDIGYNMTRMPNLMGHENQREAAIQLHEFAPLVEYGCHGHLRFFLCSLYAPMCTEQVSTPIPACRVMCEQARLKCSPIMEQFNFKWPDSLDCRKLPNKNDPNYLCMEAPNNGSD

[7] = target: T1, FZD3 cysteine-rich domain (CRD), …; assay: immunofluorescence, CHO-CRD cells
[8] = target: T2, FZD4 cysteine-rich domain (CRD), …; assay: immunofluorescence, CHO-CRD cells
[9] = target: T4, FZD6 cysteine-rich domain (CRD), …; assay: immunofluorescence, CHO-CRD cells
[10] = target: T5, FZD9 cysteine-rich domain (CRD), …; assay: immunofluorescence, CHO-CRD cells
[11] = target: T6, FZD10 cysteine-rich domain (CRD), …; assay: immunofluorescence, CHO-CRD cells
[12] = target: T7, FZD8 cysteine-rich domain (CRD), MYC-tagged and GPI-anchored on CHO cells (human, UniProt Q498S8 31-155 (rat entry), GPI anchor); assay: flow cytometry, CHO-CRD cells
T7 construct: also called FZD8 CRD; CHO-myc-FZDGPI; not shown: MYC tag and GPI anchor signal
T7 sequence: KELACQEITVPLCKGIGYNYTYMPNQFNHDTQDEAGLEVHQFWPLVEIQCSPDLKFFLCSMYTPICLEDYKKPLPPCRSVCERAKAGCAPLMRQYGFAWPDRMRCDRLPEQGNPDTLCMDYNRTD

[13] = target: FZD1 cysteine-rich domain (CRD), MYC-tagged and GPI-anchored on CHO cells (human); assay: flow cytometry, CHO-CRD cells
Procedure: (§1) Binding was measured via flow cytometry analysis of CHO cells overexpressing CRD of FZD1, FZD2, FZD3, FZD4, FZD5, FZD6, FZD7, FZD8, FZD9 or FZD10. Median fluorescence values are shown.

[14] = target: FZD7 cysteine-rich domain (CRD), MYC-tagged and GPI-anchored on CHO cells (human, UniProt O75084 45-169); assay: flow cytometry, CHO-CRD cells
Procedure: as §1

B3: Fab-2900 (Fab, V domains shown)
VH: EVQLVESGGGLVQPGGSLRLSCAASGFNLSSYYIHWVRQAPGKGLEWVASISSSSSSTSYADSVKGRFTISADTSKNTAYLQMNSLRAEDTAVYYCARGALDYWGQGTLVTVSS
VL: DIQMTQSPSSLSASVGDRVTITCRASQSVSSAVAWYQQKPGKAPKLLIYSASSLYSGVPSRFSGSRSGTDFTLTISSLQPEDFATYYCQQWYSGSSLFTFGQGTKVEIK
notes: Fab; also called Fv-2900
median fluorescence [1]: 4.26
median fluorescence [2]: 5.62
median fluorescence [3]: 38.2
median fluorescence [4]: 3.37
median fluorescence [12]: 23.3
median fluorescence [5]: 3.01
median fluorescence [6]: 3.25
binding result [7]: no binding
binding result [8]: no binding
binding result [9]: no binding
binding result [10]: no binding
binding result [11]: no binding

B5: Fab-2903 (Fab, V domains shown)
VH: B3 VH with S31Y, S52Y, S53P, S54Y, S57Y, L101I
V domain: DIQMTQSPSSLSASVGDRVTITCRASQSVSSAVAWYQQKPGKAPKLLIYSASSLYSGVPSRFSGSRSGTDFTLTISSLQPEDFATYYCQQWGGGSSLFTFG
notes: Fab; also called Fv-2903
median fluorescence [13]: 8.66
median fluorescence [1]: 4.18
median fluorescence [2]: 5.52
median fluorescence [3]: 34.9
median fluorescence [4]: 3.52
median fluorescence [14]: 8.58
median fluorescence [12]: 13.7
median fluorescence [5]: 3.11
median fluorescence [6]: 3.05
binding result [7]: no binding
binding result [8]: no binding
binding result [9]: no binding
binding result [10]: no binding
binding result [11]: no binding

Results, then the binder that gave them:

median fluorescence [1]: 4.1
median fluorescence [2]: 4.57
median fluorescence [3]: 24.8
median fluorescence [4]: 3.22
median fluorescence [5]: 3.25
median fluorescence [6]: 3.31
binding result [7]: no binding
binding result [8]: no binding
binding result [9]: no binding
binding result [10]: no binding
binding result [11]: no binding
B1: Fab-2905 (Fab, V domains shown)
VH: EVQLVESGGGLVQPGGSLRLSCAASGFNLSYYYMHWVRQAPGKGLEWVASIYSSYSYTSYADSVKGRFTISADTSKNTAYLQMNSLRAEDTAVYYCARSGYALDYWGQGTLVTVSS
VL: DIQMTQSPSSLSASVGDRVTITCRASQSVSSAVAWYQQKPGKAPKLLIYSASSLYSGVPSRFSGSRSGTDFTLTISSLQPEDFATYYCQQSSWYYGYPFTFGQGTKVEIK
notes: Fab; also called Fv-2905

median fluorescence [1]: 3.49
median fluorescence [2]: 3.65
median fluorescence [3]: 28.1
median fluorescence [4]: 2.89
median fluorescence [5]: 2.76
median fluorescence [6]: 2.59
binding result [7]: no binding
binding result [8]: no binding
binding result [9]: no binding
binding result [10]: no binding
binding result [11]: no binding
B2: Fab-2931 (Fab, V domains shown)
VH: EVQLVESGGGLVQPGGSLRLSCAASGFNLSYSSMHWVRQAPGKGLEWVAYISPYSGSTYYADSVKGRFTISADTSKNTAYLQMNSLRAEDTAVYYCARGSYWYVGGGWWVSGHGGMDYWGQGTLVTVSS
VL: DIQMTQSPSSLSASVGDRVTITCRASQSVSSAVAWYQQKPGKAPKLLIYSASSLYSGVPSRFSGSRSGTDFTLTISSLQPEDFATYYCQQSSYSLITFGQGTKVEIK
notes: Fab; also called Fv-2931

median fluorescence [13]: 16.6
median fluorescence [1]: 3.85
median fluorescence [2]: 4.26
median fluorescence [3]: 29.4
median fluorescence [4]: 3.11
median fluorescence [14]: 34.3
median fluorescence [12]: 28.9
median fluorescence [5]: 3.62
median fluorescence [6]: 3.82
binding result [7]: no binding
binding result [8]: no binding
binding result [9]: no binding
binding result [10]: no binding
binding result [11]: no binding
B4: Fab-2932 (Fab, V domains shown)
VH: B3 VH with L29I, S31Y, Y32S, I34M, S52Y, S55Y
VL: B3 VL with S93G, G94S, S95F, S96A, F98I
notes: Fab; also called Fv-2932
